Assay [1] addresses T1, Stat3-4M (Homo sapiens, UniProt P40763, C687A/Q692L/S691A/Y657F).
T1 construct: made in house; host or cells: Sf9 insect cells (baculovirus, pFastBac1)
The assay is described as follows: Phosphopeptide affinity immunoblot (peptide pull-down). It counts as binding. Conditions: compared with wild type Stat3. The protocol: (§1) NeutrAvidin agarose (40 μl; Pierce) was incubated with 10 μg of biotinylated peptide in 300 μl of Buffer A (20 mM HEPES pH 7.5, 20 mM NaF, 1 mM Na3VO4, 1 mM Na4P2O7, 1 mM EDTA, 1 mM EGTA, 20% glycerol, 0.05% NP-40, 1 mM DTT, 1 μg/ml leupeptin, 1 μg/ml aprotinin, 0.5 mM phenylmethylsulfonyl fluoride, 100 mM NaCl) at 4° C. for 2 h and washed with Buffer A 3 times. The NeutrAvidin-peptide complex was then mixed with His-tagged Stat3 protein (5 μg) in 1 ml of Buffer A (without NaCl and NP-40) at 4° C. for 2 h and washed thoroughly. Bound proteins were separated and immunoblotted using Stat3 monoclonal antibody (mAb).
NeutrAvidin agarose was incubated with the indicated biotinylated peptides (see Table 2 for exemplary sequences) or no peptide (CON) as control, washed thoroughly and mixed with identical amounts of wild type or mutant Stat3 proteins as indicated. Bound proteins were separated by SDS-PAGE and immunoblotted using Stat3 mAb. Lane ST represents purified wild type Stat3 (0.6 μg) loaded directly onto the gel as positive control.
Stat3 proteins in which mutations were introduced to alter side chains from charged or polar to non-polar within amino acid residues were predicted in each model to be critical for Stat3 binding (FIG. 1B). The recombinant Stat3 proteins were expressed in Sf9 insect cells and purified to equivalent levels using Ni-NTA resin (FIG. 1C).
(In general: In western blotting, separated proteins are transferred to a membrane and probed.)

A further assay concerns the target T2, Stat3-3M+K591L (Homo sapiens, UniProt P40763, E638L/K591L/Y640F/Y657F).
T2 construct: made in house; host or cells: Sf9 insect cells (baculovirus, pFastBac1)
The description is as above. It counts as binding. The protocol:
as §1
(§2) To test the pocket 1 component of the two models and to ensure that the peptide pull-down system was sufficiently sensitive to detect reduced binding of Stat3 containing mutations in pocket 2, either K591L or R609L was added to the 3M mutant to generate Stat3-3M+K591L and Stat3-3M+R609L.
(§3) To test the pocket 1 component of the two models and to ensure that our peptide pull-down system was sufficiently sensitive to detect reduced binding of Stat3 containing mutations in pocket 2, either K591L or R609L was added to the 3M mutant to generate Stat3-3M+K591L and Stat3-3M+R609L.

A further assay deals with T3, Stat3-3M+R609L (Homo sapiens, UniProt P40763, E638L/R609L/Y640F/Y657F).
T3 construct: made in house; host or cells: Sf9 insect cells (baculovirus, pFastBac1)
The description is as above. In kind it is binding. The protocol: as §1, §2, §3

Assay [2] concerns the target T4, Stat3-E638P (Homo sapiens, UniProt P40763, E638P).
T4 construct: made in house; host or cells: Sf9 insect cells (baculovirus)
The description is as above. It counts as binding. The protocol:
as §1
In FIG. 5C, NeutrAvidin agarose was incubated with the indicated biotinylated dodecapeptides (see Table 2 for sequence) or no peptide (CON) as control, washed thoroughly and mixed with wild type Stat3 protein. Bound proteins were separated by SDS-PAGE and immunoblotted using Stat3 mAb. Lane ST represents purified wild type Stat3 (0.6 μg) loaded directly onto the gel as a positive control.
To test the contribution of the E638 amide hydrogen to binding to G-CSFR Y704 and Y744 phosphododecapeptide, Stat3-E638P was generated by site-directed mutagenesis, which eliminated the amide hydrogen donor predicted to bind with oxygen within the +3 Q side chain.

Assay [3] has as its target T5, wild type Stat3 (Homo sapiens, UniProt P40763).
T5 construct: made in house; host or cells: Sf9 insect cells (baculovirus, pFastBac1)
Nature of the assay: Mirror resonance affinity assay (resonant mirror biosensor). It counts as binding. The protocol: (§4) Kinetics experiments were performed using an lasys Auto+ resonant mirror biosensor (Affinity Sensor, Paramus, N.J.) (see Sadowski et. al, 1986). Briefly, two-welled cuvettes coated on the bottom of each well with biotin were purchased from Affinity Sensor and prepared for immobilization of biotinylated peptides by coating each surface with 0.04 mg/ml NeutrAvidin (Pierce) and washing with PBS-T (20 mM Na Phosphate, 0.05% Tween-20). Biotinylated peptide (5 μg) was added into each well—experimental peptide to one well and control peptide to the other—and change in arc seconds monitored simultaneously in both wells using the biosensor until stable followed by washing with PBS-T. Real-time binding of Stat3 was conducted at 25° C. at a stir speed of 70 for 10 min starting at the lowest concentration of Stat3. The wells were washed out with three changes of 60 μl PBS-T, and dissociation was allowed to proceed for 5 min. Each well bottom was regenerated by washing with […] of 100 mM formic acid for 2 min and equilibrated with PBS-T for the next round of association assay. Data were collected automatically and analyzed with the FASTplot and GraFit software (see Sheinerman et. al, 2003).
(§5) Mirror resonance affinity assay. Two cells of a biotin-coated cuvette pretreated with saturating amounts of NeutrAvidin. One well of the cuvette was pretreated with biotinylated phosphopeptide based on Y1068 (pY1068, left panel), while the other well was pretreated with biotinylated non-phosphorylated peptide Y1068 (Y1068, right panel) as a control for non-specific binding. Wild type or mutated Stat3 protein was added in the concentrations indicated to each of the two cells and mirror resonance measurements recorded continuously for 10 min as shown.
To obtain quantitative kinetic information about the binding of Stat3 to G-CSFR Y704 and Y744 including association rates (kass), disassociation rates (kdiss) and dissociation equilibrium constants (KD), real-time affinity measurements using a mirror resonance biosensor were performed. The biosensor exploits surface plasmon resonance to measure in real time the alteration in the angle of a laser light reflected from a surface upon which binding events are occurring. Biotinylated peptides were immobilized onto the bottom surface of cuvette wells pre-coated with NeutrAvidin. The interaction of peptides with Stat3 added at different concentrations was measured in real time as altered deflection of a laser light striking the bottom surface of the cuvette; the alterations in the deflection angle measured in arc seconds was analyzed with GraFit software. […] The slightly lower KD for Y704 vs. Y744 is attributable to a faster association rate of Stat3 binding to this phosphododecapeptide.

Assay [4] deals with T6, Stat3-3M (Homo sapiens, UniProt P40763, E638L/Y640F/Y657F).
T6 construct: made in house; host or cells: Sf9 insect cells (baculovirus, pFastBac1)
Described as above. In kind it is binding. The protocol:
as §4, §5

Assay [5] has as its target T1, Stat3-4M. The description is as above. It counts as binding. The protocol:
as §4, §5

In assay [6] the target is T7, Stat3-6M (Homo sapiens, UniProt P40763, C687A/E638L/Q692L/S691A/Y640F/Y657F).
T7 construct: made in house; host or cells: Sf9 insect cells (baculovirus, pFastBac1)
The assay is described as above. In kind it is binding. The protocol: as §4, §5

For assay [7], the target named is T5, wild type Stat3. The assay is described as follows: Phosphopeptide affinity immunoblot (peptide pull-down). Conditions: purified wild type Stat3. In kind it is binding. The protocol:
as §1
Each peptide was incubated with equal amounts of purified wild type Stat3 protein in peptide pull-down assays (FIG. 1). NeutrAvidin agarose was incubated with the indicated biotinylated peptides (see Table 2 for sequence) or no peptide (CON) as control, washed thoroughly and mixed with identical amount of wild type Stat3. Bound proteins were separated by SDS-PAGE and immunoblotted using Stat3 mAb. Lane ST represents purified wild type Stat3 (0.6 μg) loaded directly onto the gel as positive control. […] Thus, Q at the +3 position of Y1068 phosphopeptide is required for Stat3 binding and appears to be as important for Stat3 binding as phosphorylation on tyrosine. […]

In assay [8] the target is T8, wild type Stat3 (recombinant human Stat3alpha with N-terminal 6-histidine tag) (human, UniProt P40763 1-770).
T8 construct: Expressed in Sf9 cells and purified on Ni-NTA for peptide assays; expressed from pcDNA3.1 in 293T cells for the G-CSFR co-immunoprecipitation; also called WT; purified Stat3
The assay is described as follows: peptide pull-down: biotinylated peptide on NeutrAvidin agarose, purified His-tagged Stat3 protein added, bound protein immunoblotted with Stat3 mAb.

Assay [9] addresses T9, Stat3-3M (human, UniProt P40763 1-770, limits assumed). The description is as above.
Assay [10] concerns the target T10, Stat3-4M (human, UniProt P40763 1-770, limits assumed). The description is as above.
Assay [11] has as its target T11, Stat3-6M (human, UniProt P40763 1-770, limits assumed). The assay is described as above.
Assay [12] concerns the target T12, Stat3-E638P (human, UniProt P40763 1-770).
T12 construct: Produced in Sf9 cells; CD spectrum essentially identical to wild type
The assay is described as above.

Assay [13] deals with T8, wild type Stat3 (recombinant human …). The description is as above. This is another data set of the same source.
Assay [14] has as its target T9, Stat3-3M. Described as above. The source holds these as a separate data set.
Assay [15] has as its target T10, Stat3-4M. The assay is described as above. The source holds these as a separate data set.
The target of assay [16] is T11, Stat3-6M. Described as above. The source holds these as a separate data set.
Assay [17] concerns the target T12, Stat3-E638P. Described as above. This is another data set of the same source.

Read-outs that look alike come from different tables or passages of the source. Non-standard residues stand in square brackets, D forms with d. No end group written: not given here. *: point of attachment. d‑Biotin‑LC = N-terminal biotin (d-Biotin-LC), O=C(CCCC[C@@H]1SC[C@@H]2NC(=O)N[C@@H]21)NCCCCCC(=O)*; pY = N[C@@H](Cc1ccc(OP(=O)(O)O)cc1)C(=O)O

T8 sequence (P40763 other isoform, or with tags, fused parts or gaps limits assumed): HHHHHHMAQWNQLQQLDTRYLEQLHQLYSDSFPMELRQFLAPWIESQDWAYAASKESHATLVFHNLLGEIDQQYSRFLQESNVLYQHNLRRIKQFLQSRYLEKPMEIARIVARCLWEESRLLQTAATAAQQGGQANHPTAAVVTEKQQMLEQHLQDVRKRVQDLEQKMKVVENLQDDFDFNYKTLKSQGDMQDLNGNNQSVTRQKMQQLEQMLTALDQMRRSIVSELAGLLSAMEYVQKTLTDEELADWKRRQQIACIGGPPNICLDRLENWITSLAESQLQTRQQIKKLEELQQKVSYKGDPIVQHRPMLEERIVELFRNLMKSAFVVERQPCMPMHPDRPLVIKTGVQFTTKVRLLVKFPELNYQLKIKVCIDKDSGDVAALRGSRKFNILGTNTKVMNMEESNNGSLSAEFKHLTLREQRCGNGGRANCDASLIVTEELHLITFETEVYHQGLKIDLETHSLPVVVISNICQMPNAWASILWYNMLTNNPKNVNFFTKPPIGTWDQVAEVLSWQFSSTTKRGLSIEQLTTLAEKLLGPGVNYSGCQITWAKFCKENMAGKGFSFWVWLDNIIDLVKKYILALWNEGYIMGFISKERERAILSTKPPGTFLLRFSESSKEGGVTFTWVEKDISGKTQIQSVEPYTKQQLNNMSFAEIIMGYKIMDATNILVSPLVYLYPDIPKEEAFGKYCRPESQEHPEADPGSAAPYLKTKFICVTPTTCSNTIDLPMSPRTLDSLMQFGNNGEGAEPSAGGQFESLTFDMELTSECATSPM
T5 sequence (P40763 whole entry): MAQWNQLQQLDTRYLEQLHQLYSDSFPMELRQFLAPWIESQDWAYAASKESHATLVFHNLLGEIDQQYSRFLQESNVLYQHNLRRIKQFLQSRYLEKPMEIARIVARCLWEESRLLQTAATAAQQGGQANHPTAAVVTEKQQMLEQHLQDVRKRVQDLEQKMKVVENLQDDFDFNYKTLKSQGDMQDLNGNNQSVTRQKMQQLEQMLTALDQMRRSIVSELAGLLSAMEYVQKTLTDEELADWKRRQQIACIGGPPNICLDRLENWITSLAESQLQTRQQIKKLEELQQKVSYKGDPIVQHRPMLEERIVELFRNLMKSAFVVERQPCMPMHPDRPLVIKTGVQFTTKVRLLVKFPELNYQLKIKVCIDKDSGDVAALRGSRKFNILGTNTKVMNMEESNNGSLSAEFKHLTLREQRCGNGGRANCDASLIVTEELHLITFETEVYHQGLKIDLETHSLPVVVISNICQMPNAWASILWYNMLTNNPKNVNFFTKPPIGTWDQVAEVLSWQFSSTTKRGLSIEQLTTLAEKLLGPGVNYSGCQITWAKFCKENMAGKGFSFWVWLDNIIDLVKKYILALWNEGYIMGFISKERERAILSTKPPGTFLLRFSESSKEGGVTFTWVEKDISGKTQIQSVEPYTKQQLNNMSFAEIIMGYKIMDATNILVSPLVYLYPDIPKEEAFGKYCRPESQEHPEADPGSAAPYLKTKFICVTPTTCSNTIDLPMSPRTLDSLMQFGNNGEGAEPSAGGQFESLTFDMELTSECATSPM
T11 sequence (P40763 other isoform, or with tags, fused parts or gaps limits assumed): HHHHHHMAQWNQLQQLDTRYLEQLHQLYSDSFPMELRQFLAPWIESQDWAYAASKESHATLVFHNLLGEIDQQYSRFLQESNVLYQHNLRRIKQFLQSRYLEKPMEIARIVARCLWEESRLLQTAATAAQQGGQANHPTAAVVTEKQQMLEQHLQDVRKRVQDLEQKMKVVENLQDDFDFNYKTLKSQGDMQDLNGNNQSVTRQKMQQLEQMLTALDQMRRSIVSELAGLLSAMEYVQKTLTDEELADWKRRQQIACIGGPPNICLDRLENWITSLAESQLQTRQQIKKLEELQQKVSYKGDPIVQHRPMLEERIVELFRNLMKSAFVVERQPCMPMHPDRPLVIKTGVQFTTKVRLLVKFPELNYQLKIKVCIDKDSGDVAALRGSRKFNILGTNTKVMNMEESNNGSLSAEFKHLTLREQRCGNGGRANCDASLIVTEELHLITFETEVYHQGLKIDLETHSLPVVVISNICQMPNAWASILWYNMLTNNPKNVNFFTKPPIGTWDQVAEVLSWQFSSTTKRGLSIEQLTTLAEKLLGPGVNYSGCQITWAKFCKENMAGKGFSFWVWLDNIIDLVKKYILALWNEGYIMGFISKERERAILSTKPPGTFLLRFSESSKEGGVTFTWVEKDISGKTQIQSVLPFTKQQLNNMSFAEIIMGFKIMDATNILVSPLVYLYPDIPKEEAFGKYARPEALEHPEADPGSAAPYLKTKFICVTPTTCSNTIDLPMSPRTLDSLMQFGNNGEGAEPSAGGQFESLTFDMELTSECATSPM
T9 sequence (P40763 other isoform, or with tags, fused parts or gaps limits assumed): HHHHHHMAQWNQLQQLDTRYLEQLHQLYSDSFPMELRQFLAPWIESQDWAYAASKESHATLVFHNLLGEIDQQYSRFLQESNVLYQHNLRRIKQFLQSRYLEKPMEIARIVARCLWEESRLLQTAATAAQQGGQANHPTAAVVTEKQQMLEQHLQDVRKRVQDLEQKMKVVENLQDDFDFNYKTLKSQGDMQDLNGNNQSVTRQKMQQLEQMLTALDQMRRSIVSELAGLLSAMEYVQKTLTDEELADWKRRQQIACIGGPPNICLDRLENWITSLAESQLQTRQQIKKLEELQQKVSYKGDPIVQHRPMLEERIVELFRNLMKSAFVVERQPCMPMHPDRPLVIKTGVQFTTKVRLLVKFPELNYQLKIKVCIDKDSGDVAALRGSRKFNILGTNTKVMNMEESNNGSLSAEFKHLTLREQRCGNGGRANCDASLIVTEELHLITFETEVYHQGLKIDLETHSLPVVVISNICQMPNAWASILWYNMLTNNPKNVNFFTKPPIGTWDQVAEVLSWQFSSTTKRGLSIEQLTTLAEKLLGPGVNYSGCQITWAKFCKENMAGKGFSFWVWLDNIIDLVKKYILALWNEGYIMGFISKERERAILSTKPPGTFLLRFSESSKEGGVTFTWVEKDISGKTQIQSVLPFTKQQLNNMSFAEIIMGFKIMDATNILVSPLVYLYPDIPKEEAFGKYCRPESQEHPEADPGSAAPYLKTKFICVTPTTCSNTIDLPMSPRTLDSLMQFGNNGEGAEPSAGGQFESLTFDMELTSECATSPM
T10 sequence (P40763 other isoform, or with tags, fused parts or gaps limits assumed): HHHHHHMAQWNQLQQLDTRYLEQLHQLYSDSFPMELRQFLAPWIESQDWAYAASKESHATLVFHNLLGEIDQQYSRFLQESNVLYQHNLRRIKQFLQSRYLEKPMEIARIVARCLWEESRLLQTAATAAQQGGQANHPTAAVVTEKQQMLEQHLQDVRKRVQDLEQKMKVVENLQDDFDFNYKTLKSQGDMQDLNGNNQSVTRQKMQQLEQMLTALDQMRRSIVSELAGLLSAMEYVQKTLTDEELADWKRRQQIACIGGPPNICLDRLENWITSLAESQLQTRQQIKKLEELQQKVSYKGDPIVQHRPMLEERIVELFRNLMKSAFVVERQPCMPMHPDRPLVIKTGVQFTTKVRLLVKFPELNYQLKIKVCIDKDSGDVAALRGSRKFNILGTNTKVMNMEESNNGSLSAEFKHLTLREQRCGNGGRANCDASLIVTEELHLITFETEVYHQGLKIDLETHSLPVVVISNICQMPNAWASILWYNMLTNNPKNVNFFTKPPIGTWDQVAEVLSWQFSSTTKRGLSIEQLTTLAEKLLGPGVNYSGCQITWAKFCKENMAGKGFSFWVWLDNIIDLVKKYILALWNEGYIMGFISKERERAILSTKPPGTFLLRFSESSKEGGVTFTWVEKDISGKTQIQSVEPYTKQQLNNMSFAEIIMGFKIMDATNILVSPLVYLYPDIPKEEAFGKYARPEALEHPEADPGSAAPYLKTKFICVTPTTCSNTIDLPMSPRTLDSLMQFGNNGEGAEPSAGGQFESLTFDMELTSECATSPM
T12 sequence (P40763 other isoform, or with tags, fused parts or gaps E638P E638P limits assumed): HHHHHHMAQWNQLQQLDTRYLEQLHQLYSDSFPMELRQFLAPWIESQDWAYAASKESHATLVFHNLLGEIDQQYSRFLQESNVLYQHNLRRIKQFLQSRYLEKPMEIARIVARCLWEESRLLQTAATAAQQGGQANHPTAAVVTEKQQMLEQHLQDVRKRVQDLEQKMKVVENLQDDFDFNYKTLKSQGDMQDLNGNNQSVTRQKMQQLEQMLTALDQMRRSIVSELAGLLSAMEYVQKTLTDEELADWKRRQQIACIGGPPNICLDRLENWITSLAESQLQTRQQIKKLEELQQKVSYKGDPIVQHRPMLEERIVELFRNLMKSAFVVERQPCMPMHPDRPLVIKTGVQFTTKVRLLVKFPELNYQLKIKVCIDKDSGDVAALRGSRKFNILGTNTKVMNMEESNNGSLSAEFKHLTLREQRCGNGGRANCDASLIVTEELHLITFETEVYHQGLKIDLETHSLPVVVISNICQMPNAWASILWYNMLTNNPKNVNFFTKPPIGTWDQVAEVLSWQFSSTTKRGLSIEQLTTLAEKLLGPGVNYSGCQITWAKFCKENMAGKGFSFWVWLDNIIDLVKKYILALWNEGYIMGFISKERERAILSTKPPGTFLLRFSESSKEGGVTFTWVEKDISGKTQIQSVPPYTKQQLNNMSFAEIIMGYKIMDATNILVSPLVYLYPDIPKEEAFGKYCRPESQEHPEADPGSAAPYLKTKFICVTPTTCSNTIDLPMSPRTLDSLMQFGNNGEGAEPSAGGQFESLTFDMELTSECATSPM

With “VQNPV(pY)HNQPLN (VQNPV[pY]HNQPLN) [Y1086 PDP]”, the “level of Stat3-4M bound in peptide affinity immunoblot” value in the assay with Stat3-4M [1] is listed as “equal to or greater than wild type Stat3”. The “binding of Stat3-3M+K591L in peptide pull-down” value with Stat3-3M+K591L is reported as “elimination of binding”. Moreover, in the assay with Stat3-3M+R609L, the “binding of Stat3-3M+R609L in peptide pull-down” value is recorded as “elimination of binding”. Further, in the assay with Stat3-E638P [2], the “binding of Stat3-E638P in peptide affinity immunoblot” value is on record as “no binding”.
As for `CC[C@H](C)[C@H](NC(=O)[C@H](Cc1ccc(OP(=O)(O)O)cc1)NC(=O)[C@H](CCC(=O)O)NC(=O)[C@@H]1CCCN1C(=O)[C@@H](NC(=O)[C@@H]1CCCN1C(=O)[C@H](CC(C)C)NC(=O)CCCCCNC(=O)CCCC[C@@H]1SC[C@@H]2NC(=O)N[C@@H]21)C(C)C)C(=O)N[C@@H](CC(N)=O)C(=O)N[C@@H](CCC(N)=O)C(=O)N[C@@H](CO)C(=O)N[C@H](C(=O)N1CCC[C@H]1C(=O)O)C(C)C` [Y1068 PDP, LPVPE(pY)INQSVP], the Kd (in general, the free concentration of one partner at which half of the binding sites on the other are occupied at equilibrium, for simple one-to-one binding) on wild type Stat3 [3] stood at 223 nM; at Stat3-3M [4], 177 nM; at Stat3-4M [5], 271 ± 48 nM; on Stat3-6M [6], 249 ± 22 nM.
In the case of “LPVPEYINQSVP [unphosphorylated Y1068 dodecapeptide]”, the “Stat3 detected in peptide pull-down (Stat3 immunoblot)” value with wild type Stat3 [7] is given as “little to no Stat3 was detected”.

B1: Y744 non-phosphorylated dodecapeptide (G-CSFR) (peptide)
peptide: {d‑Biotin‑LC}-PGPGHYLRCDST
Regarding B1, the binding result (in assay [8]; with Stat3-3M [9]; in the assay with Stat3-4M [10]; with Stat3-6M [11]; in the assay with Stat3-E638P [12]) was “no binding” throughout.

B2: Y1086 non-phosphorylated dodecapeptide (EGFR) (peptide)
peptide: {d‑Biotin‑LC}-VQNPVYHNQPLN
With B2, the binding result (in [13]; with Stat3-3M [14]; with Stat3-4M [15]; with Stat3-6M [16]; in the assay with Stat3-E638P [17]) was “no binding” each time.

These data come from patent US20060148715A1, “Structural requirements for STAT3 binding and recruitment to phosphotyrosine ligands” (BAYLOR COLLEGE OF MEDICINE, priority 2004, published 2006).
